The values below come from patent publication US20170218091A1 (AbbVie / Abbott, published 2017).

For the assay, the target named is T1, Human recombinant TNFα (rhTNFα) (human, UniProt P01375 77-233).
T1 construct: Soluble recombinant cytokine added to L929 cells; also called huTNFα; human TNF
Put plainly: SPR (BIAcore); antibody captured on a goat anti-huIgG Fc surface, huTNF injected at 25 nM.

T1 sequence (P01375 77-233 limits assumed): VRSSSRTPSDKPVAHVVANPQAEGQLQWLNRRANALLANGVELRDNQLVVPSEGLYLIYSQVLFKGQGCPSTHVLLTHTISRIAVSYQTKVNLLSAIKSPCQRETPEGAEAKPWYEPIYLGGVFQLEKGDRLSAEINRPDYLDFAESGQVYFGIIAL

B1: AB441 (antibody, V domains shown)
VH: EVQLVQSGAEVKKPGASVKVSCKASGYTFANYGIIWVRQAPGQGLEWMGWINTYTGKPTYAQKFQGRVTMTTDTSTSTAYMELSSLRSEDTAVYYCARKLFTTMDVTDNAMDYWGQGTTVTVSS
VL: DIQMTQSPSSLSASVGDRVTITCRASQDISQYLNWYQQKPGKAPKLLIYYTSRLQSGVPSRFSGSGSGTDFTLTISSLQPEDFATYFCQQGNTWPPTFGQGTKLEIKR
B1: the Stoichiometry is 2.
